Data reported in the RNAGym collection of RNA variant scans (doi:10.1073/pnas.2313332121).
This sample holds only a part of the variants without activity.

B1: TPR 5TU (parent)
chain: GGAUCUUCUCGAUCUAACAAAAAAGACAAAUCUGCCACAAAGCUUGAGAGCAUCUUCGGAUGCAGAGGCGGCAGCCUUCGGUGGCGCGAUAGCGCCAACGUUCUCAACUAUGACACGCAAAACGCGUGCUCCGUUGAAUGGAGUUUAUCAUG

Variants of: B1
Test: polymerase ribozyme fitness, log enrichment relative to wild type (log ratio); higher = more active; in vitro selection for triplet polymerase activity
Method in brief: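 Mutant libraries for each subunit of a heterodimeric triplet polymerase ribozyme were made by PCR and then transcribed. Each library underwent one round of in vitro selection in triplicate: annealing with a biotinylated primer, the partner subunit and triplets, frozen incubation at −7 °C, gel excision of extended constructs, streptavidin-bead capture and RT-PCR. Input and output libraries were Illumina-sequenced, and only genotypes with ≥10 input reads and ≥1 read per output were kept. Fitness is the logarithm, base 2, of genotype enrichment over wild-type enrichment, computed from inverse-variance-weighted replicate averages.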

**Q.** For U31C C36A C96U A150G, which “polymerase ribozyme fitness (log ratio)” value is on record?
**A.** The value was no more than -4.2.

**Q.** Which “polymerase ribozyme fitness (log ratio)” value does the source give for A37G A97G A98G here?
**A.** Its value is -2.55.

**Q.** With C54A C96G C103U C116A G136U as the variant, how does the “polymerase ribozyme fitness (log ratio)” value read?
**A.** The value was -4.12.

**Q.** Which “polymerase ribozyme fitness (log ratio)” value does the source give for U6C C87U here?
**A.** Its value is -1.52.

**Q.** For A28C U78G, which “polymerase ribozyme fitness (log ratio)” value is on record?
**A.** Its value is no more than -4.2.

**Q.** With C27U C57A as the variant, how does the “polymerase ribozyme fitness (log ratio)” value read?
**A.** The value was -0.747.

**Q.** For C63G G65C C93G A137C A142U, which “polymerase ribozyme fitness (log ratio)” value is on record?
**A.** The value was no more than -4.2.

**Q.** For C35G G48U G70A G92C C96G U146A, which “polymerase ribozyme fitness (log ratio)” value is on record?
**A.** Its value is no more than -4.2.

**Q.** For C8U C75A G86U A91U A122G G136A, which “polymerase ribozyme fitness (log ratio)” value is on record?
**A.** The value was no more than -4.2.

**Q.** For A20C C87A C116U, which “polymerase ribozyme fitness (log ratio)” value is on record?
**A.** The value was no more than -4.2.

**Q.** For A17C G84C A142G, which “polymerase ribozyme fitness (log ratio)” value is on record?
**A.** Its value is -3.21.

**Q.** Which “polymerase ribozyme fitness (log ratio)” value does the source give for G74U C85G C99A A107U C125A here?
**A.** The value was no more than -4.2.

**Q.** Which “polymerase ribozyme fitness (log ratio)” value does the source give for C85G C96G here?
**A.** The value was -3.49.

**Q.** Which “polymerase ribozyme fitness (log ratio)” value does the source give for C85G U135C here?
**A.** Its value is -3.66.

**Q.** Which “polymerase ribozyme fitness (log ratio)” value does the source give for U45A G58A G59C A60G G133A here?
**A.** The value was no more than -4.2.

**Q.** For U6G U31G U61A C95A G136A, which “polymerase ribozyme fitness (log ratio)” value is on record?
**A.** Its value is -1.38.

**Q.** Which “polymerase ribozyme fitness (log ratio)” value does the source give for C10U C14U A17C U56A U134A A137U U151C here?
**A.** The value was no more than -4.2.

**Q.** Which “polymerase ribozyme fitness (log ratio)” value does the source give for G88C C108G here?
**A.** The value was no more than -4.2.

**Q.** For U15G A20U G25U C87U C103G U104G A121G G126U U134C C149A, which “polymerase ribozyme fitness (log ratio)” value is on record?
**A.** Its value is no more than -4.2.

**Q.** With C76A G152A as the variant, how does the “polymerase ribozyme fitness (log ratio)” value read?
**A.** Its value is -2.86.

**Q.** For C57U C105A, which “polymerase ribozyme fitness (log ratio)” value is on record?
**A.** The value was -0.73.

**Q.** For A19U C35U G42U U55G G67A C85G A97C C114G G140U, which “polymerase ribozyme fitness (log ratio)” value is on record?
**A.** The value was no more than -4.2.

**Q.** Which “polymerase ribozyme fitness (log ratio)” value does the source give for C35A A52C G67U G68C C76U A115U A120C U134C here?
**A.** Its value is no more than -4.2.

**Q.** For A91G G92U, which “polymerase ribozyme fitness (log ratio)” value is on record?
**A.** The value was -2.31.

**Q.** For A37U C85A C93U G141C A147C, which “polymerase ribozyme fitness (log ratio)” value is on record?
**A.** Its value is no more than -4.2.

**Q.** Which “polymerase ribozyme fitness (log ratio)” value does the source give for C8G A47C C54G here?
**A.** Its value is no more than -4.2.

**Q.** For A22U A47U C96U U148A, which “polymerase ribozyme fitness (log ratio)” value is on record?
**A.** The value was -4.14.

**Q.** With A47U C85U as the variant, how does the “polymerase ribozyme fitness (log ratio)” value read?
**A.** Its value is -0.698.

**Q.** For A41G G42U A66U G74A U151G, which “polymerase ribozyme fitness (log ratio)” value is on record?
**A.** Its value is no more than -4.2.

**Q.** For C87U A121U, which “polymerase ribozyme fitness (log ratio)” value is on record?
**A.** The value was -0.38.

**Q.** Which “polymerase ribozyme fitness (log ratio)” value does the source give for A21C G84A C95A U104C here?
**A.** The value was -0.91.

**Q.** Which “polymerase ribozyme fitness (log ratio)” value does the source give for C38A G84A G86C G117U here?
**A.** Its value is no more than -4.2.

**Q.** With A17G A28U G71A A121G as the variant, how does the “polymerase ribozyme fitness (log ratio)” value read?
**A.** Its value is no more than -4.2.

**Q.** With U7C A23U C87A A89G C116U C125U as the variant, how does the “polymerase ribozyme fitness (log ratio)” value read?
**A.** The value was no more than -4.2.

**Q.** Which “polymerase ribozyme fitness (log ratio)” value does the source give for U31C A41U A115G U144G here?
**A.** Its value is -1.6.

**Q.** With A17G C93U as the variant, how does the “polymerase ribozyme fitness (log ratio)” value read?
**A.** The value was -0.578.

**Q.** With U6A G68A G83C U90G C118U as the variant, how does the “polymerase ribozyme fitness (log ratio)” value read?
**A.** The value was no more than -4.2.

**Q.** Which “polymerase ribozyme fitness (log ratio)” value does the source give for A24U U56A U148A here?
**A.** Its value is -3.8.

**Q.** Which “polymerase ribozyme fitness (log ratio)” value does the source give for A21C C85U A138U here?
**A.** The value was no more than -4.2.

**Q.** With G80C C85U A97C C99A G141U as the variant, how does the “polymerase ribozyme fitness (log ratio)” value read?
**A.** Its value is -3.93.

**Q.** With U15G C43U G59A G94U as the variant, how does the “polymerase ribozyme fitness (log ratio)” value read?
**A.** The value was no more than -4.2.

**Q.** Which “polymerase ribozyme fitness (log ratio)” value does the source give for U56G C76U A91G A122U C149G here?
**A.** Its value is no more than -4.2.

**Q.** For C72G U77G G84A C114G, which “polymerase ribozyme fitness (log ratio)” value is on record?
**A.** The value was no more than -4.2.

**Q.** For A39G U55G G84A U135G, which “polymerase ribozyme fitness (log ratio)” value is on record?
**A.** Its value is no more than -4.2.

**Q.** With A28U A37U A73G G92U A106G C118G as the variant, how does the “polymerase ribozyme fitness (log ratio)” value read?
**A.** The value was no more than -4.2.

**Q.** With A12U A20U C54U A73G A91U C99U U146G as the variant, how does the “polymerase ribozyme fitness (log ratio)” value read?
**A.** The value was no more than -4.2.

**Q.** With C38A C43A U55A C87U G117A as the variant, how does the “polymerase ribozyme fitness (log ratio)” value read?
**A.** Its value is no more than -4.2.

**Q.** For G92U G124U G141C, which “polymerase ribozyme fitness (log ratio)” value is on record?
**A.** The value was -0.283.

**Q.** With A19U A23G U90G as the variant, how does the “polymerase ribozyme fitness (log ratio)” value read?
**A.** The value was -3.99.

**Q.** For C18U G140C, which “polymerase ribozyme fitness (log ratio)” value is on record?
**A.** The value was -4.17.

**Q.** For A20C C54U C95U G140U, which “polymerase ribozyme fitness (log ratio)” value is on record?
**A.** Its value is -3.23.

**Q.** For A40C C57A U139C, which “polymerase ribozyme fitness (log ratio)” value is on record?
**A.** Its value is -3.43.

**Q.** With C35U C93G G141A as the variant, how does the “polymerase ribozyme fitness (log ratio)” value read?
**A.** Its value is -3.56.

**Q.** With U135A G143A A147G as the variant, how does the “polymerase ribozyme fitness (log ratio)” value read?
**A.** Its value is no more than -4.2.

**Q.** Which “polymerase ribozyme fitness (log ratio)” value does the source give for C76U G81A here?
**A.** The value was 0.573.

**Q.** Which “polymerase ribozyme fitness (log ratio)” value does the source give for G25C G50U C96U A97U here?
**A.** Its value is -3.33.

**Q.** Which “polymerase ribozyme fitness (log ratio)” value does the source give for G94U C114G C116U here?
**A.** Its value is no more than -4.2.

**Q.** With A60U C85G C96U C105U as the variant, how does the “polymerase ribozyme fitness (log ratio)” value read?
**A.** The value was no more than -4.2.

**Q.** With G80A C93U as the variant, how does the “polymerase ribozyme fitness (log ratio)” value read?
**A.** The value was -1.6.

**Q.** With A20C A47C as the variant, how does the “polymerase ribozyme fitness (log ratio)” value read?
**A.** Its value is -0.462.

**Q.** With A37U A52G C76A C96U C131G as the variant, how does the “polymerase ribozyme fitness (log ratio)” value read?
**A.** The value was no more than -4.2.

**Q.** With C8U A98U U135G U148C as the variant, how does the “polymerase ribozyme fitness (log ratio)” value read?
**A.** The value was no more than -4.2.

**Q.** Which “polymerase ribozyme fitness (log ratio)” value does the source give for A26C A64G G83U C85G A115G here?
**A.** The value was no more than -4.2.

**Q.** For C8A U13G G50C C76G C118A, which “polymerase ribozyme fitness (log ratio)” value is on record?
**A.** Its value is no more than -4.2.

**Q.** With U78C A142G as the variant, how does the “polymerase ribozyme fitness (log ratio)” value read?
**A.** The value was -1.33.

**Q.** Which “polymerase ribozyme fitness (log ratio)” value does the source give for A47U U56A C99G A121C here?
**A.** Its value is -2.02.

**Q.** Which “polymerase ribozyme fitness (log ratio)” value does the source give for A40C A52U U55A C93U here?
**A.** Its value is -3.92.

**Q.** Which “polymerase ribozyme fitness (log ratio)” value does the source give for U44G G58C C87G here?
**A.** Its value is no more than -4.2.

**Q.** For A22U A39U A40C A66C C105U, which “polymerase ribozyme fitness (log ratio)” value is on record?
**A.** Its value is no more than -4.2.

**Q.** For C18U U61G A91C C93G C96U C99U A147U, which “polymerase ribozyme fitness (log ratio)” value is on record?
**A.** Its value is no more than -4.2.

**Q.** With A60C C76U as the variant, how does the “polymerase ribozyme fitness (log ratio)” value read?
**A.** Its value is -3.17.

**Q.** For U4A G59A, which “polymerase ribozyme fitness (log ratio)” value is on record?
**A.** Its value is -1.06.

**Q.** Which “polymerase ribozyme fitness (log ratio)” value does the source give for U101G A106C A113C A122G here?
**A.** Its value is no more than -4.2.

**Q.** Which “polymerase ribozyme fitness (log ratio)” value does the source give for C10U U109G A142C C149A here?
**A.** Its value is no more than -4.2.

**Q.** With U45A G67C G84U C108U A120U as the variant, how does the “polymerase ribozyme fitness (log ratio)” value read?
**A.** The value was no more than -4.2.

**Q.** With A20C A60C C85A as the variant, how does the “polymerase ribozyme fitness (log ratio)” value read?
**A.** Its value is -2.66.

**Q.** For C85U C116U G141A, which “polymerase ribozyme fitness (log ratio)” value is on record?
**A.** Its value is -2.95.

**Q.** With A3G G94U C103U U127C U134C G136A as the variant, how does the “polymerase ribozyme fitness (log ratio)” value read?
**A.** The value was -3.9.

**Q.** Which “polymerase ribozyme fitness (log ratio)” value does the source give for A28C C32U A52U U53G C93A G112C G143U here?
**A.** The value was no more than -4.2.

**Q.** For A19G U55A G68A G71A C103U, which “polymerase ribozyme fitness (log ratio)” value is on record?
**A.** The value was no more than -4.2.

**Q.** With A52G G67U A142G as the variant, how does the “polymerase ribozyme fitness (log ratio)” value read?
**A.** The value was -3.52.

**Q.** Which “polymerase ribozyme fitness (log ratio)” value does the source give for A52G A64U G81A G86C G92A A122C G143C here?
**A.** Its value is no more than -4.2.

**Q.** With C75A C79U G94C as the variant, how does the “polymerase ribozyme fitness (log ratio)” value read?
**A.** Its value is no more than -4.2.
